Data as given in PMC10110466 (Nature biotechnology, 2022).

Biological target: T1, soluble human IL-2Rβγ complex (human, UniProt P31785 23-262; P14784 27-240, biotin)
T1 sequence (looked up) 1: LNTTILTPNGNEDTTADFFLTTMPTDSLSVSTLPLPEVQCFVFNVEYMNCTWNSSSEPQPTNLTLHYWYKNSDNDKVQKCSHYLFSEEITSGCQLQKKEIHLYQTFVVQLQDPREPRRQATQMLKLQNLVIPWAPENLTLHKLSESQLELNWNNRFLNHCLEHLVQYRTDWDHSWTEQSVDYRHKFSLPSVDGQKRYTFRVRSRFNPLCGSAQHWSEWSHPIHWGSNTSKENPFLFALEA
T1 sequence (looked up) 2: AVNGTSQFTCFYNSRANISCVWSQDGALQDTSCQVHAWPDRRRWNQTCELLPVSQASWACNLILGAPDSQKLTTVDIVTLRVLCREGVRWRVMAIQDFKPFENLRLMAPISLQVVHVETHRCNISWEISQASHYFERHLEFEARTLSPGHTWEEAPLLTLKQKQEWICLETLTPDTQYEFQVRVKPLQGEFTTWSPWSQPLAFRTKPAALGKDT
Experiment: cell-based or functional assay

STAT5 phosphorylation in YT-1 human NK cells, EC50: > 40 µM
Binder: PKKKIQLHAEHALYDALMILNIVKTNS [Neo2A]
